Laboratory results from paper PMC12617493 (Science Advances, 2025).
Values belong to the molecule of their own block, whether it stands above or below them.

B1: Osh6 (natural protein, S. cerevisiae, UniProt Q02201 1-448, looked up)
chain: MGSKKLTVGSDSHRLSKSSFSSNKSSHSATKDQPIDTDDIDEDDESGHNIILNIISQLRPGCDLTRITLPTFILEKKSMLERVTNQLQFPEFLLQAHSEKDPLKRFLYVMKWYLAGWHIAPKAVKKPLNPVLGEYFTAYWDLPNKQQAYYISEQTSHHPPECAYFYMIPESSIRVDGVVIPKSRFLGNSSAAMMDGSTVLQFLDIKDGNGKPEKYVLTQPNVYVRGILFGKMRIELGDHMIIKSPNFQADIEFKTKGYVFGTYDAIEGTVKDYDGNAYYEISGKWNDVMYLKDLKQPRSSPKVFLDTHKESPLRPKVRPLSEQGEYESRKLWKKVTDALAVRNHPVATEEKFQIEDHQRQLAKKRIEDGVEFHPKLFRRSKPGEDLDYCIYKNIPVDEDPEKQIRSILQIAPILPGQQFTDKFFIPAFEKIKSQKKMIENEKQNPAKQ
B4: CIst2[590–946] (domain or fragment, S. cerevisiae)
chain: CSSHDDVANGIVPKHVVNVQNPPKQEVFEKIPSPEFNSNNEKELVQRKGSANEKLHQELGEKQPASSANGYEAHAATHANNDPSSLSSASSPSLSSSSSSSKTGVVKAVDNDTAGSAGKKPLATESTEKRNSLVKVPTVGSYGVAGATLPETIPTSKNYYLRFDEDGKSIRDAKSSAESSNATNNNTLGTESKLLPDGDAVDALSRKIDQIPKIAVTGGENNENTQAKDDAATKTPLIKDANIKPVVNAAVNDNQSKVSVATEQTKKTEVSTKNGPSRSISTKETKDSARPSNNNTTTTTTTDATQPHHHHHHHRHRDAGVKNVTNNSKTTESSSSSSAAKEKPKHKKGLLHKLKKKL
modifications: N-terminal cysteine covalently attached to MPB-PE of liposomes (in the experiments with MPB-PE–containing liposomes)
notes: extra N-terminal cysteine; With PM-like liposomes it is held by its C-terminal polybasic motif, not covalently; also called Ist2 IDR with an extra N-terminal cysteine; source: E. coli BL21-GOLD(DE3), purified (Glutathione Sepharose 4B, thrombin cleavage, Sephacryl S-200 HR); not shown: GST, N-terminal, cleaved

Key:
[1] = molecular target: B4
[2] = molecular target: B4; test: cell-based or functional assay
[3] = molecular target: T1, Osh6(H157A/H158A) (S. cerevisiae, UniProt Q02201 1-448, H157A | H158A); test: pull-down; GST constructs (2.5 μM) immobilised on Glutathione Sepharose 4B beads; Osh6, its mutants, Osh4, ORD^Osh3 or ORD^ORP8 added at 2.5 μM; 50 mM tris pH 7.4, 120 mM NaCl, 1 mM MgCl2, 1% TX-100, 1 mM DTT, 10% glycerol; 25°C, 1 hour; bound fraction by SDS-PAGE; conditions: both partners purified
T1 construct: also called Osh6(HH/AA)
T1 sequence (looked up): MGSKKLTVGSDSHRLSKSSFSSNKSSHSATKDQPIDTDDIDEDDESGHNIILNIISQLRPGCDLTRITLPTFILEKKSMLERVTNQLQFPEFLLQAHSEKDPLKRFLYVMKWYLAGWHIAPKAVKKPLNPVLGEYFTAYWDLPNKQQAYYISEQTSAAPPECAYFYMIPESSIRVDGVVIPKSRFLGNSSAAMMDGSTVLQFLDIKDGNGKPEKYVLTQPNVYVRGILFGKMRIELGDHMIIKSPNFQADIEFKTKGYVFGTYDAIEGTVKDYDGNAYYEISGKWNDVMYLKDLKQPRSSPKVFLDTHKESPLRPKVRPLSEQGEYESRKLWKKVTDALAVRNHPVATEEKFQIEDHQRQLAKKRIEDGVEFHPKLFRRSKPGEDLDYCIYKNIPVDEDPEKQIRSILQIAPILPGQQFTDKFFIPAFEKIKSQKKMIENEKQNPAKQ

[4] = molecular target: B1; test: liposome flotation assay; Osh6 (0.75 μM) with or without an equivalent amount of CIst2[590–946] and PM-like liposomes POPC/POPS/PI(4,5)P2/NBD-PE (65:30:5:0.1); sucrose gradient, top fraction by SDS-PAGE; conditions: both partners purified

Molecule: ORD^ORP8 (H514A/H515A) (domain or fragment)
Ist2-dependent (ER→PM)/(ER→O) NBD-PS transfer rate ratio R (Ist2), three liposome populations, LER and LPM connected by CIst2[590–946], FRET, 30°C [1]: 1

Molecule: B1
Ist2-dependent (ER→PM)/(ER→O) NBD-PS transfer rate ratio R_(Ist2), three liposome populations, LER and LPM connected by CIst2[590–946], FRET, 30°C [2]: 7.6

Molecule: B4
binding result [4]: binds

Second part, the molecule after the results:

Ist2-dependent (ER→PM)/(ER→O) NBD-PS transfer rate ratio R_(Ist2), three liposome populations, LER and LPM connected by CIst2[590–946], FRET [2]: ~1
B2: Osh6(HH/AA)-3M (natural protein, S. cerevisiae, UniProt Q02201 1-448, looked up)
chain: MGSKKLTVGSDSHRLSKSSFSSNKSSHSATKDQPIDTDDIDEDDESGHNIILNIISQLRPGCDLTRITLPTFILEKKSMLERVTNQLQFPEFLLQAHSEKDPLKRFLYVMKWYLAGWHIAPKAVKKPLNPVLGEYFTAYWDLPNKQQAYYISEQTSAAPPECAYFYMIPASSIRVDGVVIPKSRFLGNSSAAMMDGSTVLQFLDIKDGNGKPEKYVLTQPNVYVRGILFGKMRIELGDHMIIKSPNFQADIEFKTKGYVFGTYDAIEGTVKDYDGNAYYEISGKWNDVMYLKDLKQPRSSPKVFLDTHKESPLRPKVRPLSEQGEYESRKLWKKVTDALAVRNHPVATEEKFQIEDHQRQLAKKRIEDGVEFHPKLFRRSKPGEDLDYCIYKNIPVDEDPEKQIRSILQIAPILPGAQFIDKFFIPAFEKIKSQKKMIENEKQNPAKQ

binding result [3]: binds
B3: GST-Ist2[590–946] (domain or fragment, S. cerevisiae, UniProt P38250 590-946, looked up)
chain: SSHDDVANGIVPKHVVNVQNPPKQEVFEKIPSPEFNSNNEKELVQRKGSANEKLHQELGEKQPASSANGYEAHAATHANNDPSSLSSASSPSLSSSSSSSKTGVVKAVDNDTAGSAGKKPLATESTEKRNSLVKVPTVGSYGVAGATLPETIPTSKNYYLRFDEDGKSIRDAKSSAESSNATNNNTLGTESKLLPDGDAVDALSRKIDQIPKIAVTGGENNENTQAKDDAATKTPLIKDANIKPVVNAAVNDNQSKVSVATEQTKKTEVSTKNGPSRSISTKETKDSARPSNNNTTTTTTTDATQPHHHHHHHRHRDAGVKNVTNNSKTTESSSSSSAAKEKPKHKKGLLHKLKKKL
notes: also called Ist2 IDR; full-length Ist2 IDR; source: E. coli BL21-GOLD(DE3), purified (Glutathione Sepharose 4B, eluted with glutathione); not shown: GST, N-terminal, kept
